From US20110269679A1, “INHIBITORS OF AMYLOID FIBRIL FORMATION AND USES THEREOF” (priority 2004, published 2011)
Entries after “also recorded” stand apart in the source; their conditions may differ.

Tests used:
[1] = system: rat insulinoma line (RIN-1056A) exposed to exogenous IAPP 1-37; test: IAPP amyloid toxicity assay in RIN cells (AlamarBlue cell viability); assay type: cell-based; details: molar ratio of 1:20 [IAPP:inhibitor]
Protocol: 3. IAPP Amyloid Toxicity: Amyloid fibril cytotoxicity may be due to an apoptotic mechanism and/or mechanical disruption of the plasma membrane. The ability of inhibitors to prevent toxicity in cells exposed to exogenous amyloid is another indication of activity that is assessed. A rat insulinoma line (RIN-1056A) having β-cell-like characteristics is exposed to 10 μM IAPP 1-37 with inhibitors added simultaneously to the medium at 1-20 fold excess. IAPP and inhibitors are not pre-mixed, but are added separately to the cell culture medium to maximize the similarities to conditions in vivo.
Toxicity is assayed both over the short (sampling every 2 hr over an 8-10 hr period) and long term (every 12 hr for a period of 6-7 days). Data from these investigations will indicate if the inhibitors are able to regulate this more physiological action of IAPP.

[2] = molecular target: T1, IAPP 1-37 (Homo sapiens, UniProt P10997); test: Circular dichroism (CD): IAPP random coil to β-sheet conformational transition; details: for CD activity of modified or truncated tripeptides compared with ANF: significantly lower molar ratios than ANF
T1 sequence (P10997 34-70): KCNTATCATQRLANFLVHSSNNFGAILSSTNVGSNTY
Source text: 1. Circular Dichroism (CD): Amyloidogenic peptides and proteins undergo a conformational transition from a native to β-sheet conformation. […] In the case of peptides such as Aβ and IAPP, the non-fibrillar forms are essentially random coils that subsequently convert to a β-sheet under different conditions of pH and concentration.
CD provides a global view of the peptide secondary structure over an extended time course that can be used to monitor the amyloid conformational transition (L e. , diagnostic absorption minima for β-conformation at 218 nm). IAPP is initially treated with hexafluroisopropanol (HFIP) and trifluroacetic acid (TFA), to ensure it is in a monomeric form. IAPP 1-37 (50 μM) in the presence of inhibitors (50 μM-1.0 mM) are compared to controls, with spectra collected twice daily for a period of 72 hours. (β-sheet conversion and precipitation occurs at 48-72 hrs depending on conditions used.) Inhibitors can be evaluated for their ability to maintain IAPP in a random or non-β conformation. This can be determined by direct comparisons of the spectra obtained, and by quantitative analyses using deconvolution algorithms (e.g., Jasco J720 spectropolarimeter contained in the inventor's laboratory, and equipped with Spectra Manager).

[3] = molecular target: T1, IAPP 1-37; test: Negative stain electron microscopy of IAPP amyloid fibrils; details: negatively-stained preparations, IAPP + peptide, molar ratio 1:10
Source text: 2. Negative Stain Electron Microscopy: IAPP amyloid morphology and relative density of the fibrils can be examined by transmission EM techniques. This provides information of the morphology of the aggregates formed (e.g., amorphous, fibrillar, truncated/protofilament structures, and/or abnormal lateral aggregation profiles). In addition, scanning of multiple grids and samples can be performed by an experienced EM technician who will assess the relative amount of fibrils formed in the presence of each inhibitor. This supporting evidence can be used to rank the relative activities of the inhibitors. Aliquots are taken from the samples used for CD analysis, and applied to pioloform coated grids, blotted dry, and stained with phosphotungstic acid (pH 7.0).

[4] = molecular target: T2, full-length IAPP1-37 (Homo sapiens, UniProt P10997); details: earlier work, Fraser WO 02/24727; cited from earlier work
T2 construct: When combined with full-length IAPP1-37 at relatively low molar ratios of 1:5 and 1:1
T2 sequence (P10997 34-70): T1 sequence (P10997 34-70)

Substance | activity in the RIN-cell toxicity assay using exogenous IAPP [1] | relative level/density and morphology of IAPP amyloid fibrils (EM) [3] | inhibitory activity of hexapeptide fragments [4] | other results
AGF: tripeptide ANF substituted with G at its second position (Tripeptide derived from human IAPP) | more activity than ANG (SEQ. ID. NO. 27) or ANF (SEQ. ID. NO. 24) | significantly reduced density of fibrils |  | CD activity of modified or truncated tripeptides compared with ANF [2]: similar, but more potent, activities at significantly lower molar ratios
ANF: truncated tripeptide of hexapeptide ANFLVH, IAPP residues 13-15 (Tripeptide derived from human IAPP) | showed activity; also recorded: greater activity than the tetra- or penta-peptide | reduced the relative levels of fibrils, and altered the morphology of the aggregates which were formed; also recorded: reduced the relative levels of fibrils and altered the morphology of the aggregates which were formed |  | inhibition of IAPP conformational change from random coil to β-sheet (CD) ([2]; combined with IAPP at a molar ratio of 1:10): inhibited this conformational change
ANFL: tetrapeptide sub-fragment of hexapeptide ANFLVH (Tetrapeptide derived from human IAPP) | showed activity |  |  | 
ANFLV: pentapeptide sub-fragment of hexapeptide ANFLVH (Pentapeptide derived from human IAPP) | showed activity |  |  | 
ANFLVH: original hexapeptide from the IAPP 8-20 domain (13-18), disclosed in WO 02/24727 (Hexapeptide derived from human IAPP) |  |  | displayed inhibitory activity | 
ANG: tripeptide ANF substituted with G at its third position (Tripeptide derived from human IAPP) | lower activity in the toxicity assay | lower activity based upon the presence of multiple aggregate forms |  | 
GAILSS: hexapeptide from the IAPP20-29 region, disclosed in WO 02/24727 (Hexapeptide derived from human IAPP) |  |  | displayed inhibitory activity | 
GNF: tripeptide ANF substituted with G at its first position (Tripeptide derived from human IAPP) | more activity than ANG (SEQ. ID. NO. 27) or ANF (SEQ. ID. NO. 24) | significantly reduced density of fibrils |  | CD activity of modified or truncated tripeptides compared with ANF [2]: similar, but more potent, activities at significantly lower molar ratios
NFL: truncated tripeptide of hexapeptide ANFLVH (Tripeptide derived from human IAPP) |  | active |  | CD activity of modified or truncated tripeptides compared with ANF [2]: similar, but more potent, activities at significantly lower molar ratios
NFLVHS: hexapeptide from the IAPP 8-20 domain, disclosed in WO 02/24727 (Hexapeptide derived from human IAPP) |  |  | displayed inhibitory activity | 
SNNFGA: hexapeptide from the IAPP20-29 region, disclosed in WO 02/24727 (Hexapeptide derived from human IAPP) |  |  | displayed inhibitory activity | 
